Target: fluorescein-labeled Fc-III (Fluorescein-Ahx-…-NH2)
Test: other fluorescence titration

| Substance | limit of detection by fluorescence intensity [g/L] | fold increase of fluorescence intensity at 2.5 g/L [fold] |
| --- | --- | --- |
| murine IgG1 (antibody) | 0.1 |  |
| human IgG1 adalimumab biosimilar Exemptia (antibody) | 0.0001 | 1.8 |
